From patent publication US20210309696A1 (ENLITISA SHANGHAI PHARMACEUTICAL, published 2021)
Non-standard residues stand in square brackets, D forms with d. No end group written: not given here. Hyp = O=C(O)[C@@H]1C[C@@H](O)CN1

T1: CysLTR1 (cysteinyl leukotriene receptor CysLT1), expressed in the CYSLTR1/HEK293 cell line (UniProt Q9Y271 1-337, limits assumed)
T1 sequence (looked up): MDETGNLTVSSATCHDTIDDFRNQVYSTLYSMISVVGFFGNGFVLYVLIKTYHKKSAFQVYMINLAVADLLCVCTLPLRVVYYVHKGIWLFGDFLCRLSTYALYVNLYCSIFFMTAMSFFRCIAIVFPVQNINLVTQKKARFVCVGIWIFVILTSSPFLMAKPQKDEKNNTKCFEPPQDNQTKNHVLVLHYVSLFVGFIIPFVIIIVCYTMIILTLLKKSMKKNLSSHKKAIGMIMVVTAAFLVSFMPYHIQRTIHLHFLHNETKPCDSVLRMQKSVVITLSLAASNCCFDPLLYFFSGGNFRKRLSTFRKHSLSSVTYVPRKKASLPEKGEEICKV


Assays:
Assay in all cases: cell-based or functional assay
[1] = molecular target: CysLTR1 (cysteinyl leukotriene receptor CysLT1), expressed in the CYSLTR1/HEK293 cell line (UniProt Q9Y271)
[2] = molecular target: T1, CysLTR1 (cysteinyl leukotriene receptor …)
[3] = molecular target: T1, CysLTR1 (cysteinyl leukotriene receptor …); remark: listed apart in the source
[4] = molecular target: T1, CysLTR1 (cysteinyl leukotriene receptor …); remark: listed apart in the source

Row | Molecule | IC50 (nM), in vitro CysLTR1 FLIPR antagonist test (Fluo-4 calcium assay, CYSLTR1/HEK293 cells) [1] [nM] | IC50 (nM), in vitro CysLTR1 FLIPR antagonist test (Fluo-4 calcium assay, CYSLTR1/HEK293 cells) [2] [nM] | IC50 (nM), in vitro CysLTR1 FLIPR antagonist test (Fluo-4 calcium assay, CYSLTR1/HEK293 cells), repeat [3] [nM] | affinity to CysLTR1 relative to Compound A, derived from the FLIPR antagonist IC50s [4] [fold against Compound A]
1 | Montelukast-Ala-Lys-Pro-Ser-Tyr-Hyp-Thr-Tyr-Hyp-Lys (montelukast covalently bonded at the N-terminus) (peptide) | 99.5 | – | – | –
2 | {montelukast styrene}-AKPSY[Hyp][Hyp]TYK | – | 475 | – | –
3 | montelukast-AKPSY[Hyp][Hyp]TYK | – | 90.5 | 140 | 5
